Entries after “also recorded” stand apart in the source; their conditions may differ.
Columns and labels:
CXCR4 [1] = biological target: T1, CXCR4 (Homo sapiens, UniProt P61073); assay: Competition with 125I-SDF-1α binding to CEMx174 cells; parameters: host or cells: CEMx174 (174xCEM); conditions: room temperature, 0.1% sodium azide, FIG. 7B, 7C
Procedure: FIGS. 7A through 7C depicts the inhibition of chemokine receptor ligand binding by peptide pre-treatment. FIG. 7A. Effect of pre-treatment with peptides 15K and 15D on the binding of MIP-1β to SupT1/CCR5 cells; FIG. 7B. Effect of pre-treatment with peptides 15K and 1SD on the binding of SDF-1α to CEMx174 cells; and FIG. 7C. Effect of pre-treatment with 15K and control peptide 15GIG on the binding of SDF-1α to CEmx174 cells. Binding studies were performed as described in Materials and Methods.
Binding assays were performed with HEK-CCR5 or HEK CXCR4 in triplicate by adding unlabeled competitor (anti-coreceptor binding peptide or control chemokine) and radiolabeled chemokine, 0.2 ng/ml (^125I-MIP-1β or SDF-1α, specific activity 2000 Ci/mmol, NEN Life Science Products) to a cell suspension (4×10^5 cells in 200 μl) in RPMI 1640 supplemented with 1% bovine serum albumin and 25 mM HEPES pH 8.0 (binding medium). Cells were then incubated at 22° C. for 40 min with continuous rotation. After incubation cells were transferred to the tubes containing 800 μl of 10% sucrose in PBS and harvested by centrifugation. The supernatant was aspirated and the cell-associated radioactivity was measured using a 1272 Wallac gamma counter. Binding assays were performed with the 174xCEM and Sup-T1 cells expressing CCR5 in duplicates by adding unlabeled competitor (peptide or control chemokine) and radiolabeled chemokine, 0.2 ng/ml (^125I-MIP-1β or ^125I-SDF-1α, specific activity 2000 Ci/mmol, NEN life Science Products) to 300 μl cell suspension (4×10^6 cells/ml) in RPMI 1640 supplemented with 1% bovine serum albumin, 0.1% sodium azide and 25 mM HEPES pH 8.0 (binding medium). Cells were then incubated at 22° C. for 30 min with continuous rotation. After incubation cells were transferred to the tubes containing 800 μl of 10% sucrose in PBS and harvested by centrifugation, the supematant was aspirated and the cell-associated radioactivity was measured using a 1272 Wallac gamma counter. The data were analyzed by nonlinear regression using the computer program GraphPad Prizm 3.0. […]

CXCR4 [2] = biological target: T1, CXCR4; assay: Ca2+ mobilization in THP-1 cells in response to SDF-1α (fura-2); assay type: cell-based; conditions: peptide 500 μM preincubated, SDF-1α 100 ng/ml, FIG. 6
Procedure: FIGS. 6A through 6D depict the effect of peptide pre-treatment on the mobilization of intracellular Ca^2+ in THP-1 cells in response to SDF-1α. Cells loaded with fura-2 were preincubated with peptide 15K (FIG. 6C), 15D (FIG. 6B) and 15CW (FIG. 6D) at a final concentration of 500 μM for 3 min prior to stimulation with SDF-1α (100 ng/ml).
THP-1 cells (12×10^6/ml in RPMI 1640 containing 10% FSB) were loaded in the presence of 5 μM fura-2 AM (Molecular Probes, Eugene, Oreg.) at 22° C. for 30 min in the dark. Subsequently, cells were washed three times and resuspended (10^6 cells/ml) in the buffer containing 138 mM sodium chloride, 6 mM potassium chloride, 1 mM calcium chloride, 1 mM magnesium chloride, 10 mM HEPES, pH 7.4,5 mM glucose, and 0.1% bovine serum albumin. 1.93 ml of loaded cells was transferred into a quartz cuvette. 50 μl of a peptide stock solution (2×10^−2 M) was added to the cells, and after 3 min of incubation 20 μl of human SDF-1α (10 μg/ml, PeproTech) was added to a stirred cuvette. The measurements were performed using luminescence spectrophotometer LS50 B (Perkin-Elmer). Ca^2+ mobilization in the cells in response to SDF-1α was measured by analysis of the ratio of fluorescence emitted at 510 nm after sequential excitation at 340 and 380 nm.
The increase of intracellular Ca^2+ concentration mediated by a chemokine receptor in response to a cognate chemokine is a reliable assay for measurement of chemokine agonist activity. The human monocytic cell line THP-1 expresses a high level of CXCR4 and responds well to SDF-1α stimulation (FIG. 6A), so these cells were used to determine whether peptides 15D and 15K could block the activation of CXCR4.

CXCR4 [3] = biological target: T1, CXCR4; assay: Binding of anti-CXCR4 antibody 12G5 to CEMx174 cells (flow cytometry); parameters: host or cells: CEMx174 (174xCEM); conditions: CEMx174 cells, preincubation 60 min 22° C.; FIG. 5
Procedure: FIG. 5A. Dose dependent effect of peptide 15K in comparison with SDF-1α. FIG. 5B. The comparison of the effects of 15K and 15D. FIG. 5C. The comparison of the effects of 15K and 15KS. Cells were preincubated at 22° C. with peptides at designated concentrations of SDF-1α for 60 min. Then cells were incubated with FITC-labeled anti-human CXCR4 monoclonal antibodies 12G5 for 40 min at 22° C. and washed with FACS buffer prior to flow cytometry.
CEMx174 cells were pelleted and resuspended at 10^6 cells/ml in PBS containing 1% BSA and 0.1% sodium azide (FACS buffer). Cells were then preincubated with designated concentrations of peptides or SDF-1-α (1 μg/ml) at 22° C. for 60 min. FITC-labeled anti-human CXCR4 antibody (clone 12G5, BD PharMingen, San Diego, Calif.) was added to the cells per the manufactures instructions and further incubated at 22° C. for 40 minutes. Cells were extensively washed with FACS buffer and analyzed using a FACS Calibur flowcytometer (Becton Dickinson). HEK/CCR5 cells were suspended in Dulbecco's PBS containing 1% FCS and 0.05% NaN3 (10^4 cells in 100 μl) and incubated with or without 5 μg of MIP-1β (PeproTech, Rocky Hill, N.J.), 0.1 mM peptide 15D or 15K for 45 min at 22° C. Cells were then treated with FITC-conjugated anti-human CCR5 antibody (2D7; BD PharMingen, San Diego, Calif.), and incubated for 30 min at 22° C. Cells were washed twice, and analyzed using a FACScan flow cytometer (Becton Dickinson Immunocytometry Systems, San Jose, Calif.).
To determine if peptides 15D and 15K interact directly with chemokine receptors the effect of these and control peptides on the binding of anti-chemokine receptor antibodies to CXCR4 and CCR5 was studied. The monoclonal antibody 12G5 recognizes a conformational extracellular epitope on CXCR4. This antibody blocks the infectivity of some X4 strains of HIV-1 and HIV-2 (Endres et al., Cell 87:745-756, 1996; Hoxie et al., J. Reprod. Immunol. 41:197-211(1998); McKnight et al., J. Virol. 74:1692-1696(1997), 19, 26). […] Further, the binding of 12G5 to CXCR4 receptor-expressing cells is prevented by anti-HIV compounds. […] 73:2752-2761, 1999. To determine the importance of the particular amino acid sequence of the inhibitory activity of the peptides. The effects of peptide 15K and the corresponding scrambled peptide 15KS on binding of 12G5 to CXCR4 was compared. […] Apparently there is a direct correlation between the ability of 15K to inhibit the anti-CXCR4 antibody binding and its ability to inhibit HIV-1 infectivity since the scrambled peptide 15KS with the same amino acid comparison has reduced ability to manifest both these activities.

HIV-1IIIB = HIV-1IIIB infection of PBMC, p24 ELISA; assay type: cell-based; conditions: peptide 1 hr before HIV-1IIIB, p24 after 48 hr; FIG. 4
Procedure: Peripheral blood mononuclear cells were treated with designated concentrations of peptide for a period of 1 hr prior to addition of HIV-1IIIB. After 2 hr, cells were washed, and viral replication was determined after 48 hr by analysis of p24 levels. Results are representative of 4 independent experiments.
PBMCs were obtained from whole blood of normal donors and isolated by Ficoll-Paque Plus (Pharmacia Biotech, Piscataway, N.J.) density gradient centrifugation, and plated at a cell density of 2×10^6 cells/ml. Monocyte-derived macrophages (MDM) were generated from adherent human peripheral blood mononuclear cells by culture for 7 days with M-CSF (100 ng/ml). Cultures were maintained in RPMI-1640 medium (Life Technologies, Rockville, Md.) supplemented with 10% heat-inactivated endotoxin-free FCS (Hyclone, Logan, Utah), 10 μg/ml gentamicin, and 1 mM glutamine. Cells were treated with designated concentrations of the exemplary peptides 15K or 15D, and after 1 hr cells were infected with HIV-1IIIB (T cell tropic) or HIV-1JRFL (monocyte tropic) at an multiplicity of infection (MOI) of 0.1. After 2 hr, cells were washed, and cultured for additional 48-72 hr, followed by analysis of HIV replication as determined by quantification of accumulated p24 in the supernatant. The production of p24 was determined by conventional sandwich ELISA, using ELISA plates pre-coated with capture anti-p24 antibodies provided by the AIDS Vaccine Program (SAIC Frederick, NCI-FCRDC, Frederick, Md.). The captured p24 antigen was detected using rabbit anti-HIV-1 anti-p24 antibody, and a secondary goat anti-rabbit IgG (peroxidase-labeled) antibody. The captured p24 protein was detected using a 3,3′,5,5′-tetramethylbenzidine and hydrogen peroxide detection system (KPL Laboratories, Gaithersburg, Md.). The reaction was read spectrophotometrically at 450 nm. No cytotoxicity was detectable following treatment of PBMC with the peptides even at a concentration of 100 μg/ml.
In view of the foregoing binding inhibition studies, and considering the homology between the 15K and 15D peptides and the CXCR4 ligand SDF-1α, it was further undertaken to determine the capacity of the synthetic peptides to inhibit CXCR4 co-receptor function. In particular, experiments were carried out to assess the ability of 15K or 15D to alter the infection of PBMCs with the T cell-tropic […] strain. […] Significant inhibition of HIV-1 infection was detected with concentrations of peptides as low as 10 ng/ml.

T1 sequence (P61073 whole entry): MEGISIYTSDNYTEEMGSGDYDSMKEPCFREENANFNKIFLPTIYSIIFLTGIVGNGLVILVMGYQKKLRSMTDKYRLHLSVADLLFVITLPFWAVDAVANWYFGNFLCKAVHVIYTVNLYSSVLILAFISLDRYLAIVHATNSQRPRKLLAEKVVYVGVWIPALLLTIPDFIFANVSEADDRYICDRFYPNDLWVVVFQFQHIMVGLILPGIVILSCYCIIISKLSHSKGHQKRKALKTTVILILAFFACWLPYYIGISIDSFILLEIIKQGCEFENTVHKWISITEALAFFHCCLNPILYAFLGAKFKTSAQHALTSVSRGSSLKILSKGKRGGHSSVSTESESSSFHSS

Substance: G I G D P V T C L K S G A I A (GIGDPVTCLKSGAIA) [Peptide 15GIG, reference compound]
- inhibition of SDF-1α binding to CXCR4 (CXCR4 [1]): significantly lower competing activity

Substance: I R K A H C W I D R A D N N S [Peptide 15CW, reference compound]
- inhibition of Ca2+ mobilization in response to SDF-1α (CXCR4 [2]): less effective

Substance: K I N S W R A D N I H C K A R (KINSWRADNIHCKAR) [Peptide 15KS, reference compound]
- inhibition of 12G5 antibody binding to CXCR4 (CXCR4 [3]): significantly less inhibitory activity; also recorded: a low level of inhibitory activity
- inhibition of T cell-tropic HIV-1 infection of PBMCs (p24) (HIV-1IIIB): significantly less inhibition

From US20060116325A1, “Methods and compositions for inhibiting hiv-coreceptor interactions” (priority 2001, published 2006)
